Data from patent publication US12534531 (MacroGenics, dated 2026).

How the values were obtained:
[1] = molecular target: T1, soluble human PD-1 (the extracellular domain of human PD-1 fused to a human Fc Region) (human, UniProt Q15116 25-170); assay: ELISA: shPD-1 hFc coated at 0.5 ug/ml, goat anti-mouse IgG (H+L) detection, RLU
T1 construct: whole entry named; also called shPD-1 hFc; shPD-1-human Fc; not shown: human Fc Region

[2] = molecular target: T2, soluble human PD-1 (the extracellular domain of human PD-1 fused to a His tag) (human, UniProt Q15116 25-170); assay: ELISA: shPD-1 His coated at 0.5 ug/ml, goat anti-mouse IgG (H+L) detection, RLU
T2 construct: also called shPD-1 His; shPD-1-His; not shown: His tag

[3] = molecular target: T3, soluble cynomolgus monkey PD-1 (the extracellular domain of cynomolgus monkey PD-1 fused to a human Fc Region) (cynomolgus monkey, UniProt B0LAJ3 25-170); assay: ELISA: scyno-PD-1-TEV-Fc coated at 1 ug/ml, goat anti-mouse IgG (H+L) detection, RLU
T3 construct: also called scyno-PD1 Fc; scynoPD-1-hFc; not shown: Human Fc Region and any linker or cleavage site between the extracellular domain and the Fc

[4] = molecular target: T4, soluble cynomolgus monkey PD-1 (scyno PD-1 hFc) cleaved to remove Fc portion (cynomolgus monkey, UniProt B0LAJ3 25-170); assay: Biacore, mAb captured on F(ab)2 goat anti-human Fc, analyte scyno PD-1 hFc cleaved of Fc
[5] = molecular target: T4, soluble cynomolgus monkey PD-1 (scyno …); assay: Biacore, mAb captured on Protein A, analyte scyno PD-1 hFc cleaved of Fc
[6] = molecular target: T5, human PD-1 expressed on the surface of cells (NSO cells expressing human PD-1; MNFAT-luc2/PD-1 Jurkat cells) (human, UniProt Q15116 21-288); assay: FACS blocking on NSO cells expressing human PD-1, 1:4 dilutions, MFI; blocked ligand: biotinylated sPD-L2, streptavidin-PE
T5 construct: also called cell surface PD-1; PDCD1 transfected NSO cells expressing PD-1

[7] = molecular target: T5, human PD-1 expressed on the surface of …; assay: FACS blocking on NSO cells expressing human PD-1, 1:4 dilutions, MFI; blocked ligand: biotinylated sPD-L1, streptavidin-PE
[8] = molecular target: T5, human PD-1 expressed on the surface of …; assay: FACS saturation binding on NSO cells expressing human PD-1, goat anti-human-APC, MFI, 1:4 dilutions
[9] = molecular target: T2, soluble human PD-1 (the extracellular …); assay: Biacore, mAb captured on Protein A, analyte shPD-1 His

T1 sequence (Q15116 25-170): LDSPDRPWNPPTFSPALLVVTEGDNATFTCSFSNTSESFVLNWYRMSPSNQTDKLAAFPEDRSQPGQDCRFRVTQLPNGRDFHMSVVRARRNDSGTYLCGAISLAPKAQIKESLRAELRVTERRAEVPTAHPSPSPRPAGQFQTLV
T2 sequence (Q15116 25-170): as above
T5 sequence (Q15116 21-288): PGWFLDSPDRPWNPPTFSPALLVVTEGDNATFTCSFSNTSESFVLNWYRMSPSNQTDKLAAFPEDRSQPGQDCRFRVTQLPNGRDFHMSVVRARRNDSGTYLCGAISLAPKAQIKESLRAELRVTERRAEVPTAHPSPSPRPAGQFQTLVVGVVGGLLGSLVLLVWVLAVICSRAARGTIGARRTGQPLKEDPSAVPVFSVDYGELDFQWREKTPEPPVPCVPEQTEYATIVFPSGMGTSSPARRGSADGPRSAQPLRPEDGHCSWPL
T4 sequence (B0LAJ3 entry or part of it limits assumed): as the sequence (Q15116 25-170) above, with D2E, P10A, V19L, T35A, Q75R, T144A counted along it
T3 sequence (B0LAJ3 entry or part of it limits assumed): as the sequence (Q15116 25-170) above, with D2E, P10A, V19L, T35A, Q75R, T144A counted along it

Binder | binding result [1] | Kd [5] [nM] | Kd [9] [nM] | binding result [2] | binding result [3] | also measured
PD-1 mAb 11 (antibody, V domains shown, Murine monoclonal antibody) VH: EVQLQQSGTVLARPGASVKMSCKTSGYTFTGYWMHWVKQRPGQGLKWMGAIYPGNSDTHYNQKFKGKAKLTAVTSASTAYMELSSLTNEDSAIYYCTTGTYSYFDVWGTGTTVTVSS VL: DILLTQSPAILSVSPGERVSFSCRASQSIGTSIHWYQHRTNGSPRLLIKYASESISGIPSRFSGSGSGTDFTLSINSVESEDIADYYCQQSNSWLTFGAGTKLELK | binds |  |  |  |  | EC50 (read off the curve) [2]: ~0.2 µg/mL; EC50 (read off the curve) [3]: ~0.2 µg/mL
PD-1 mAb A IgG1 (AA) (antibody, V domains shown) VH: QVQLVESGGGVVQPGRSLRLDCKASGITFSNSGMHWVRQAPGKGLEWVAVIWYDGSKRYYADSVKGRFTISRDNSKNTLFLQMNSLRAEDTAVYYCATNDDYWGQGTLVTVSS VL: EIVLTQSPATLSLSPGERATLSCRASQSVSSYLAWYQQKPGQAPRLLIYDASNRATGIPARFSGSGSGTDFTLTISSLEPEDFAVYYCQQSSNWPRTFGQGTKVEIK |  |  |  |  |  | Kd [4]: 5.6 nM
PD-1 mAb A (nivolumab), constant region not named where tested (antibody, V domains shown, also called 5C4; BMS-936558) VH: QVQLVESGGGVVQPGRSLRLDCKASGITFSNSGMHWVRQAPGKGLEWVAVIWYDGSKRYYADSVKGRFTISRDNSKNTLFLQMNSLRAEDTAVYYCATNDDYWGQGTLVTVSS VL: EIVLTQSPATLSLSPGERATLSCRASQSVSSYLAWYQQKPGQAPRLLIYDASNRATGIPARFSGSGSGTDFTLTISSLEPEDFAVYYCQQSSNWPRTFGQGTKVEIK |  | 6.9 |  |  |  | 
hPD-1 mAb 2 IgG1 (AA) (antibody, V domains shown) VH: EVQLVESGGGLVQPGGSLRLSCAASGFVFSSFGMHWVRQAPGKGLEWVAYISSGSMSISYADTVKGRFTISRDNAKNTLYLQMNSLRTEDTALYYCASLSDYFDYWGQGTTVTVSS VL: DVVMTQSPLSLPVTLGQPASISCRSSQSLVHSTGNTYLHWYLQKPGQSPQLLIYRVSNRFSGVPDRFSGSGSGTDFTLKISRVEAEDVGVYYCSQTTHVPWTFGQGTKLEIKR |  |  |  |  |  | IC50 (read off the curve) [6]: ~0.1 ug/test; IC50 (read off the curve) [7]: ~0.04 ug/test; EC50 (read off the curve) [8]: ~0.5 µg/mL
hPD-1 mAb 2, constant region not named where tested (antibody, V domains shown, also called humanized PD-1 mAb 2) VH: EVQLVESGGGLVQPGGSLRLSCAASGFVFSSFGMHWVRQAPGKGLEWVAYISSGSMSISYADTVKGRFTISRDNAKNTLYLQMNSLRTEDTALYYCASLSDYFDYWGQGTTVTVSS VL: DVVMTQSPLSLPVTLGQPASISCRSSQSLVHSTGNTYLHWYLQKPGQSPQLLIYRVSNRFSGVPDRFSGSGSGTDFTLKISRVEAEDVGVYYCSQTTHVPWTFGQGTKLEIK |  | 17 | 5 |  |  | 
PD-1 mAb 14 (antibody, V domains shown, Murine monoclonal antibody) VH: QVQLQQPGAELVKPGASVKMSCKASGYNFISYWITWVKQRPGQGLQWIGNIYPGTDGTTYNEKFKSKATLTVDTSSSTAYMHLSRLTSEDSAVYYCATGLHWYFDVWGTGTTVTVSS VL: DIVMTQSQKFMSTSVGDRVSVTCKASQSVGTNVAWYQQKPGQSPKALIYSASSRFSGVPDRFTGSGSGTDFTLTISNVQSEDLAEYFCQQYNSYPYTFGGGTKLEIK | binds |  |  | binds | binds | 
hPD-1 mAb 7 (1.1) IgG1 (AA) (antibody, V domains shown, VH1 with VL1) VH: QVQLVQSGAEVKKPGASVKVSCKASGYSFTSYWMNWVRQAPGQGLEWIGVIHPSDSETWLDQKFKDRVTITVDKSTSTAYMELSSLRSEDTAVYYCAREHYGTSPFAYWGQGTLVTVSS VL: EIVLTQSPATLSLSPGERATLSCRANESVDNYGMSFMNWFQQKPGQPPKLLIHAASNQGSGVPSRFSGSGSGTDFTLTISSLEPEDFAVYFCQQSKEVPYTFGGGTKVEIKR |  |  |  |  |  | IC50 (read off the curve) [6]: ~0.01 ug/test; IC50 (read off the curve) [7]: ~0.01 ug/test; EC50 (read off the curve) [8]: ~0.2 µg/mL
hPD-1 mAb 7 (1.2), constant region not named where tested (antibody, V domains shown) VH: QVQLVQSGAEVKKPGASVKVSCKASGYSFTSYWMNWVRQAPGQGLEWIGVIHPSDSETWLDQKFKDRVTITVDKSTSTAYMELSSLRSEDTAVYYCAREHYGTSPFAYWGQGTLVTVSS VL: EIVLTQSPATLSLSPGERATLSCRASESVDNYGMSFMNWFQQKPGQPPKLLIHAASNQGSGVPSRFSGSGSGTDFTLTISSLEPEDFAVYFCQQSKEVPYTFGGGTKVEIK |  | 1.7 | 0.39 |  |  | 
hPD-1 mAb 9 (1.1), constant region not named where tested (antibody, V domains shown) VH: EVQLVESGGGLVRPGGSLKLSCAASGFTFSSYLVSWVRQAPGKGLEWVATISGGGGNTYYSDSVKGRFTISRDNAKNSLYLQMNSLRAEDTATYYCARYGFDGAWFAYWGQGTLVTVSS VL: DIQMTQSPSSLSASVGDRVTITCRASENIYSYLAWYQQKPGKAPKLLIYNAKTLAAGVPSRFSGSGSGTDFTLTISSLQPEDFATYYCQHHYAVPWTFGQGTKLEIK |  | 73.3 | 36.1 |  |  | 
PD-1 mAb 10 (antibody, V domains shown, Murine monoclonal antibody) VH: EVILVESGGGLVKPGGSLKLSCAASGFTFSNYLMSWVRQTPEKRLEWVASISGGGSNIYYPDSVKGRFTISRDNAKNTLYLQMNSLRSEDTALYYCARQELAFDYWGQGTTLTVSS VL: DIQMTQTTSSLSASLGDRVTISCRTSQDISNFLNWYQQKPDGTIKLLIYYTSRLHSGVPSRFSGSGSGTDYSLTISNLEQEDIATYFCQQGSTLPWTFGGGTKLEII | binds |  |  | binds | binds | 
hPD-1 mAb 15 IgG1 (AA) (antibody, V domains shown) VH: EVQLVESGGGLVRPGGSLRLSCAASGFTFSSYLISWVRQAPGKGLEWVAAISGGGADTYYADSVKGRFTISRDNAKNSLYLQMNSLRAEDTATYYCARRGTYAMDYWGQGTLVTVSS VL: DIQMTQSPSSLSASVGDRVTITCLASQTIGTWLAWYQQKPGKAPKLLIYAATSLADGVPSRFSGSGSGTDFTFTISSLQPEDFATYYCQQLYSIPWTFGQGTKLEIKR |  |  |  |  |  | IC50 (read off the curve) [6]: ~0.09 ug/test; IC50 (read off the curve) [7]: ~0.04 ug/test
hPD-1 mAb 15, constant region not named where tested (antibody, V domains shown, also called humanized PD-1 mAb 15) VH: EVQLVESGGGLVRPGGSLRLSCAASGFTFSSYLISWVRQAPGKGLEWVAAISGGGADTYYADSVKGRFTISRDNAKNSLYLQMNSLRAEDTATYYCARRGTYAMDYWGQGTLVTVSS VL: DIQMTQSPSSLSASVGDRVTITCLASQTIGTWLAWYQQKPGKAPKLLIYAATSLADGVPSRFSGSGSGTDFTFTISSLQPEDFATYYCQQLYSIPWTFGQGTKLEIK |  | 78.3 | 13.3 |  |  | 
PD-1 mAb 13 (antibody, V domains shown, Murine monoclonal antibody) VH: EVMLVESGGGLVKPGGSLKLSCAASGFTFSSHTMSWVRQTPEKRLEWVATISGGGSNIYYPDSVKGRFTISRDNAKNTLYLQMSSLRSEDTALYYCARQAYYGNYWYFDVWGTGTTVTVSS VL: DIQMTQSPATQSASLGESVTITCLASQTIGTWLAWYQQKPGKSPQLLIYAATSLADGVPSRFSGSGSGTKFSFKISSLQAEDFVSYYCQQLDSIPWTFGGGTKLEIK | binds |  |  | binds | binds | 
PD-1 mAb 15 (antibody, V domains shown, Murine monoclonal antibody) VH: EVMLVESGGGLVKPGGSLKLSCAASGFIFSSYLISWVRQTPEKRLEWVAAISGGGADTYYADSVKGRFTISRDNAKNTLYLQMSSLRSEDTALYYCTRRGTYAMDYWGQGTSVTVSS VL: DIQMTQSPASQSASLGESVTITCLASQTIGTWLAWYQQKPGKSPQLLIYAATSLADGVPSRFSGSGSGTKFSFKISSLQAEDFVNYYCQQLYSIPWTFGGGTKLEIK | binds | 40.7 | 2.9 |  | binds | 
PD-1 mAb 8 (antibody, V domains shown, Murine monoclonal antibody) VH: EGQLQQSGPELVKPGASVKISCKASGYTFTDYYMNWVKQNHGKSLEWIGDINPKNGDTHYNQKFKGEATLTVDKSSTTAYMELRSLTSEDSAVYYCASDFDYWGQGTTLTVSS VL: DVVMTQTPLSLPVGLGDQASISCRSSQTLVYSNGNTYLNWFLQKPGQSPKLLIYKVSNRFSGVPDRFSGSGSGTDFTLKISRVEAEDLGVYFCSQSTHVPFTFGSGTKLEIK | binds |  |  | binds | binds | 
PD-1 mAb 12 (antibody, V domains shown, Murine monoclonal antibody) VH: QGHLQQSGAELVRPGASVTLSCKASGFTFTDYEMHWVKQTPVHGLEWIGTIDPETGGTAYNQKFKGKAILTVDKSSTTTYMELRSLTSEDSAVFYCSRERITTVVEGAYWYFDVWGTGTTVTVSS VL: DVLMTQTPLSLPVSLGDQASISCRSSQNIVHSNGNTYLEWYLQKPGQSPKLLICKVSTRFSGVPDRFSGSGSGTDFTLKISRVEAEDLGVYYCFQGSHVPYTFGGGTKLEIK | binds |  |  | binds | binds | 
